Series [1] addresses hERα ligand-binding domain (Homo sapiens, UniProt P03372 P03372:282-595). The series is described as follows: EMSA; 100 nM protein, 2.5 nM RNA. The following applies: tags: GST fusion, baculovirus/insect cells, Invitrogen PV4543, label: 32P-CTP internal. Here is the method:
Human ERα was incubated with ligands (40 nM to 5 μM E2 or OHT) or vehicle control (EtOH) at 37° C. for 10 min before addition of RNA. Regardless of the absence or presence of the ligands, hERα formed a complex with AptER-1 in the same way. In FIG. 12B, the ligand competition assays showing that the interaction between AptER-4 and hERα was not intervened by ligand-binding. Human ERα was incubated with 1 μM E2 or vehicle control (EtOH) before addition of AptER-4. Regardless of the absence or presence of the ligands, hERα formed a complex with AptER-4 in the same way. […] Proteins were 100 nM. In the presence of hERα, both aptamers were shifted. No binding activity to GST/hERα-LBD was detected.
Whether the aptamers bind to LBD was examined in two ways. One approach was an EMSA to directly examine whether the aptamers bound to the GST/hERα-LBD construct. The recombinant human ERα-LBD purchased from Invitrogen was expressed as a GST-tagged fusion protein in baculovirus-infected insect cells. It contains amino acid 282 to 595 of hERα, with a calculated molecular weight of 62.80 kDa protein. According to the manufacturer's instruction, the concentration of functional receptor was determined by quantification of estrodial, [6, 7-³H9(N)] receptor complexes using a hydroxyapatite (HAP) assay. Binding reactions were set up with 2.5 nM radiolabeled aptamers and 100 nM protein. […]
(In EMSA bound probe runs differently from free probe, usually more slowly.)

The target of series [2] is T1, Human estrogen receptor alpha (hERα), full-length, unliganded (Homo sapiens, UniProt P03372 P03372:1-595). The experiment in a line: filter; same buffer, 37 C; Hill n>1. The settings on record: tags: none stated; baculovirus/insect cells; Invitrogen P2187 or EMD4 Biosciences 330655; label: 32P-CTP internal; predicted three-way junction with two long hairpins. The procedure: (§1) The dissociation constant (Kd) of the AptER-1, -2, -3, and -4 were measured using a nitrocellulose filter binding assay. A constant trace amount of [γ-³²P]-CTP incorporated RNA aptamer (˜0.1 nM) was titrated with increasing amounts of the target protein ranging from 5 to 150 nM. The binding activity at each concentration was determined as % binding, by calculating the radioactive signal of the RNA-protein complex retained on the filter as a percentage of the signal at the highest protein concentration (saturated) used. The assays were performed in triplicates for each aptamer. A binding curve was constructed using Sigma Plot 9.0.1, with average binding affinity (% binding) as a function of the protein concentration using a sigmoidal equation (Hill equation, 3 parameters). Apparent Kd was the protein concentration where half of the maximal binding activity was achieved, and were calculated from the data points by using Sigma Plot. […] The first 3 aptamers were isolated in in vitro selection I, and their affinity rank explains the relative abundance in the final selected library. More specifically, it is believed that AptER-1 dominated the final selected pool because it was the strongest binder. AptER-4 was the weakest binder, and would not have been easily identified in the selection I libraries.
T1 sequence (P03372 whole entry, one chain of several): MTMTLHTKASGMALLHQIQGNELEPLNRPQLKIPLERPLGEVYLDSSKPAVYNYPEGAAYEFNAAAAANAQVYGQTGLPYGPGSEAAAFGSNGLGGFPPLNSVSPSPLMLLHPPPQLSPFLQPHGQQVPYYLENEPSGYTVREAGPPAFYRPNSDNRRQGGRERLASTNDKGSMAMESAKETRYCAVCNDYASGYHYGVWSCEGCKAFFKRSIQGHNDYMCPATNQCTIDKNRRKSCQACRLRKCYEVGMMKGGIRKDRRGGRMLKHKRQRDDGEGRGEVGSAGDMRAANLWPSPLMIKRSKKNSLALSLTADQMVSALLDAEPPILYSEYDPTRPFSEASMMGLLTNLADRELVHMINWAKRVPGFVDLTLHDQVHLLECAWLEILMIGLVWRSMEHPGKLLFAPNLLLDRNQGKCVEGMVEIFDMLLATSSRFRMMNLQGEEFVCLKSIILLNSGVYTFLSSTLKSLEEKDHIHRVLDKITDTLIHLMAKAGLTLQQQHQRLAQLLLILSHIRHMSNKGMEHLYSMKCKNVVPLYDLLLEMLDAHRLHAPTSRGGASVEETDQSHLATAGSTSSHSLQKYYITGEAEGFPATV

Series [3] addresses T2, hERα DNA-binding domain (Homo sapiens, UniProt P03372 P03372:180-268). The experiment in a line: DBD binding assay, method not specified. The following applies: tags: N-terminal His6; E. coli BL21(DE3); label: 32P-CTP internal; predicted three-way junction with two long hairpins.
The target in series [4] is T3, Human estrogen receptor beta (hERβ) (Homo sapiens, UniProt Q92731 Q92731:1-530). The experiment in a line: filter; affinity for hERβ too low to be determined. The settings on record: tags: none stated; baculovirus/insect cells; EMD4 Biosciences 330657; label: 32P-CTP internal; predicted three-way junction with two long hairpins.
T3 sequence (Q92731 whole entry, one chain of several): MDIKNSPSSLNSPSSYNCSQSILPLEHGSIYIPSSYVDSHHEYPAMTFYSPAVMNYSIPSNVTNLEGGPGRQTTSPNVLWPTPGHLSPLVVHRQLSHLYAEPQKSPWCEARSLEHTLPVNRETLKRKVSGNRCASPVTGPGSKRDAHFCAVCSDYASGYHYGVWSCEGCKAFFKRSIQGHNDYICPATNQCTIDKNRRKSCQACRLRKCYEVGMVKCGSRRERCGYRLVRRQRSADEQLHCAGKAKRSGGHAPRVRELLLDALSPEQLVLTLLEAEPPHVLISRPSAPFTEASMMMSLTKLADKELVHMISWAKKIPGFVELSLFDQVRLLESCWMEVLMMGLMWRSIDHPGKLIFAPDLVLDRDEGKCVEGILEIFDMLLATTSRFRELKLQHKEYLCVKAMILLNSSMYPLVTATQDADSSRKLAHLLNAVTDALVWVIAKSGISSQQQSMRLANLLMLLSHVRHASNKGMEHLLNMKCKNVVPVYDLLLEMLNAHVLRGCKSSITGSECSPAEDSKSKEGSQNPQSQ
Series [5] has as its target T3, Human estrogen receptor beta (hERβ). The experiment in a line: filter; text prints hERα for this 26 nM value but context compares with hERβ (probable typo). The settings on record: tags: none stated; baculovirus/insect cells; EMD4 Biosciences 330657; label: 32P-CTP internal. Here is the method: as §1, with “A” for “The dissociation constant (Kd) of the AptER-1, -2, -3, and -4 were measured using a nitrocellulose filter binding assay. A”, “libraries. […]” for “libraries.”

Series [6] deals with T1, Human estrogen receptor alpha (hERα), …. The experiment in a line: FP; filter-binding assay (nitrocellulose), 12 mM HEPES pH 7.6, 150 mM NaCl, 10 mM MgCl2, 37 C; Hill coefficient about 1. The settings on record: tags: none stated; baculovirus/insect cells; Invitrogen P2187 or EMD4 Biosciences 330655; label: 32P-CTP internal. The procedure:
as §1

The target of series [7] is T2, hERα DNA-binding domain. The series is described as follows: EMSA; also no binding in filter assay. The following applies: tags: N-terminal His6; E. coli BL21(DE3); label: 32P-CTP internal. The procedure: No binding activity to RNase inhibitor (control) or DBD & RNase inhibitor was detected. The binding reactions were resolved on the same type of gel as above. […] End-radiolabeled ERE-50mer at 5 nM was mixed with 100× or 400× more concentrated unlabeled competitors ERE-50mer, AptER-1, -2 and -3 RNA or an early generation pool in hERα selection G1 before addition of hERα (40 nM). Only cold ERE-50mer disrupted radioactive ERE-hERα complex.
Class I aptamers bound with similar affinities to both subtypes of ER, which share the highest homology (96%) in the DBD. This raised the possibility that the target site of Class I aptamers was located within the DBD. Whether the aptamers bind to the DBD was tested in binding assays using a recombinant hERα-DBD. It was expressed as a His₆-tagged fusion protein in E. coli BL21 (DE3) and purified as described in the Materials and Methods. To verify its ERE-binding capability, a DNA EMSA was performed. DNA oligo ERE-50mer contains a GAAA tetra loop, which forces the oligo to form a hairpin. A copy of Xenopus laevis vitellogenin A2 ERE (5′-[…]-3′, SEQ ID NO: 73) was presented in the stem of a hairpin. […] However, in both EMSA (FIG. 11B) and filter-binding assay, no association was detected between AptER-1 and DBD. […]

Chain of hERα ligand-binding domain (P03372 282-595, one chain of several): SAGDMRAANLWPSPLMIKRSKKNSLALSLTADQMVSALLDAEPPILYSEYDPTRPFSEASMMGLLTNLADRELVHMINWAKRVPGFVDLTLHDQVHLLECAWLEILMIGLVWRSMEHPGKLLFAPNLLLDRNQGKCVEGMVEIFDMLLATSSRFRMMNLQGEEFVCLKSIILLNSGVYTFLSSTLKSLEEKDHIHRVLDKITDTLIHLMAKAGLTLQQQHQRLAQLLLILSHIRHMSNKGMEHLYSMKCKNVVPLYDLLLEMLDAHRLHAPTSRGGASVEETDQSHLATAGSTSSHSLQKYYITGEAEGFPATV
T2 sequence (P03372 180-268, one chain of several): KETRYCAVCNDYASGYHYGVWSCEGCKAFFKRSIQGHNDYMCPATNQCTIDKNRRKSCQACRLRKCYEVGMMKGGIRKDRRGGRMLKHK

B1: AptER-4 (ssRNA)
RNA: GGGAGAAUUCAACUGCCAUCUAGGCCACAGCCGGCGGUCGAACACCAGAGGGCGACUUUGGGUAGUCGAGUAUUAAGUACUACAAGCUUCUGGACUCGGU
On to B1, for which the binding result (in series [1] (predicted three-way junction with two long hairpins); in the series with hERα DNA-binding domain [3]; in series [4]) was “no binding” throughout. Further, the Kd (in general, the concentration at which binding is half-saturated) in series [2] was approximately 45 nM.

B2: AptER-1 (clone B63) (ssRNA)
RNA: GGGAGAAUUCAACUGCCAUCUAGGCCCACAGUUCAGAGGCACCGCGAACAAAACGCAAGACAGAGUGCCGACAAGAGCACUACAAGCUUCUGGACUCGGU
On to B2, for which the binding result (in series [1]; with hERα DNA-binding domain [7]) was “no binding” in each case. Further, the Kd in series [5] was approximately 26 nM; in series [6], approximately 16 nM.

The values above are taken from US20150031754, “APTAMER MODULATORS OF ESTROGEN RECEPTORS” (RESEARCH FOUNDATION OF STATE UNIVERSITY OF NEW YORK AT …, published 2015).
